Assay results as given in publication PMC12363165 (2025).

B1: Vpu with LgBiT fused to its C-terminus (pBiT1.1-C-vpu) [HIV-1] / RBM10 fused to SmBiT (pBiT2.1-C-rbm10) [human] (parent complex)
chain 1: MQPIQIAIAALVVAIIIAIVVWSIVIIEYRKILRQRKIDRLIDRLIERAEDSGNESEGEISALVEMGVEMGHHAPWDIDDL
chain 2: MEYERRGGRGDRTGRYGATDRSQDDGGENRSRDHDYRDMDYRSYPREYGSQEGKHDYDDSSEEQSAEDSYEASPGSETQRRRRRRHRHSPTGPPGFPRDGDYRDQDYRTEQGEEEEEEEDEEEEEKASNIVMLRMLPQAATEDDIRGQLQSHGVQAREVRLMRNKSSGQSRGFAFVEFSHLQDATRWMEANQHSLNILGQKVSMHYSDPKPKINEDWLCNKCGVQNFKRREKCFKCGVPKSEAEQKLPLGTRLDQQTLPLGGRELSQGLLPLPQPYQAQGVLASQALSQGSEPSSENANDTIILRNLNPHSTMDSILGALAPYAVLSSSNVRVIKDKQTQLNRGFAFIQLSTIVEAAQLLQILQALHPPLTIDGKTINVEFAKGSKRDMASNEGSRISAASVASTAIAAAQWAISQASQGGEGTWATSEEPPVDYSYYQQDEGYGNSQGTESSLYAHGYLKGTKGPGITGTKGDPTGAGPEASLEPGADSVSMQAFSRAQPGAAPGIYQQSAEASSSQGTAANSQSYTIMSPAVLKSELQSPTHPSSALPPATSPTAQESYSQYPVPDVSTYQYDETSGYYYDPQTGLYYDPNSQYYYNAQSQQYLYWDGERRTYVPALEQSADGHKETGAPSKEGKEKKEKHKTKTAQQIAKDMERWARSLNKQKENFKNSFQPISSLRDDERRESATADAGYAILEKKGALAERQHTSMDLPKLASDDRPSPPRGLVAAYSGESDSEEEQERGGPEREEKLTDWQKLACLLCRRQFPSKEALIRHQQLSGLHKQNLEIHRRAHLSENELEALEKNDMEQMKYRDRAAERREKYGIPEPPEPKRRKYGGISTASVDFEQPTRDGLGSDNIGSRMLQAMGWKEGSGLGRKKQGIVTPIEAQTRVRGSGLGARGSSYGVTSTESYKETLHKTMVTRFNEAQ

Variants of: B1
Assay: NanoBiT luciferase complementation reporter assay; HEK293T cells, co-transfection, read after 2 days; parent: 1; read off a plot
Variant chain 1 I26A has a ratio to parent of roughly 0.56. In the case of chain 1 V25A, the ratio to parent is reported as roughly 0.41. With chain 1 R34A the ratio to parent was roughly 0.63. chain 1 H73A showed a ratio to parent of roughly 0.98. In the case of chain 1 D77A, the ratio to parent is reported as roughly 0.6.
